Data taken from PMC8396340.
pKd: −log10 of the molar value.

Molecular target: Transferrin receptor 1 (TfR, CD71) (Homo sapiens) (UniProt P02786)
Test: flow cytometry cell binding
Settings: 5 mM Mg2+, PBS, 4.5 g/L glucose, 5 mM MgCl2, 1 mg/mL BSA, 0.1 mg/mL herring sperm DNA, 30 min on ice (4 C), intact cells
[1] = HCT-8T cells (cell line inferred)

Sequence of UniProt P02786 (P02786 whole entry): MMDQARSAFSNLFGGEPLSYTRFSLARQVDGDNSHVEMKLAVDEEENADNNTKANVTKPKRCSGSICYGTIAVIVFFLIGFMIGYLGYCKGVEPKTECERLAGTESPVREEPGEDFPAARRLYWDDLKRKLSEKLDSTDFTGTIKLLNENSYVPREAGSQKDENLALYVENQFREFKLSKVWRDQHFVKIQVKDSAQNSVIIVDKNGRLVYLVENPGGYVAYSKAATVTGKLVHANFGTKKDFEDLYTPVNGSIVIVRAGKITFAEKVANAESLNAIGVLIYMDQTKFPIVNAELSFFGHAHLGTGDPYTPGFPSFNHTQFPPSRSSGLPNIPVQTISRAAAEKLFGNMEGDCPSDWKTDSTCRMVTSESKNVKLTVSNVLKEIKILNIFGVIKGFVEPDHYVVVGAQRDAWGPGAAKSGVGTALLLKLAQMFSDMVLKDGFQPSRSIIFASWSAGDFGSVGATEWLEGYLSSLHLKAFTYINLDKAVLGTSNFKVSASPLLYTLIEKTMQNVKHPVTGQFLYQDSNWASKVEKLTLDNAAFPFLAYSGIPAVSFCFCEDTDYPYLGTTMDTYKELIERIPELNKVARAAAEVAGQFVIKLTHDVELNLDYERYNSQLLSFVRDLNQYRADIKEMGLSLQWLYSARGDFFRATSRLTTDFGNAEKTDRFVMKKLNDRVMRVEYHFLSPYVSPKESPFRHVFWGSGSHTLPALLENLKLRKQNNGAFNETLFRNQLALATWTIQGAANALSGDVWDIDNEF

**Q.** With “AAGGAGCAGCGTGGAGGATAGGGATTCTGTTGGTCGGCTGGTTGGTATCCTTAGGGTGTGTCGTCGTGGT [HG1]” as the sequence, how does the pKd [1] read?
**A.** The pKd was 8.19.

**Q.** With “GGATAGGGATTCTGTTGGTCGGCTGGTTGGTATCC [HG1-9]” as the sequence, how does the pKd [1] read?
**A.** Its pKd is 8.27.

**Q.** What about the pKd (HeLa cells) of the same sequence?
**A.** Its pKd is 7.70.

**Q.** And the pKd (Jurkat cells)?
**A.** Its pKd is 7.96.
